Measured values reported in the supplement of paper PMC10567573.

B1: BRF1 (parent)
chain: CTACGSVLEDNIIVSEVQFVESSG

Variants of: B1
Test: protein stability index of a GFP-peptide fusion (GPS, HEK-293T) (PSI 1-6); higher = more stable
Conditions: c terminus: a fixed tail appended
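Also: lentivirally expressed fusions sorted by FACS into six bins by GFP to DsRed ratio, PSI derived from sequencing read proportions per bin multiplied by bin number.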

Variant | protein stability index
CTACGSVLEDNIIVCEVQFVESSG | 2.82
CTACGSVLEDNIIVDEVQFVESSG | 4.08
CTACGSVLEDNIIVEEVQFVESSG | 3.74
CTACGSVLEDNIIVFEVQFVESSG | 1.04
CTACGSVLEDNIIVGEVQFVESSG | 2.92
CTACGSVLEDNIIVHEVQFVESSG | 2.71
CTACGSVLEDNIIVIEVQFVESSG | 1.36
CTACGSVLEDNIIVKEVQFVESSG | 3.19
CTACGSVLEDNIIVLEVQFVESSG | 1.69
CTACGSVLEDNIIVMEVQFVESSG | 1.16
CTACGSVLEDNIIVNEVQFVESSG | 3.79
CTACGSVLEDNIIVPEVQFVESSG | 3.15
CTACGSVLEDNIIVQEVQFVESSG | 3.11
CTACGSVLEDNIIVREVQFVESSG | 3.67
CTACGSVLEDNIIVTEVQFVESSG | 3.02
CTACGSVLEDNIIVVEVQFVESSG | 1.91
CTACGSVLEDNIIVWEVQFVESSG | 2.75
CTACGSVLEDNIIVYEVQFVESSG | 2.06
CTACGSVLEDNIIVSAVQFVESSG | 2.66
CTACGSVLEDNIIVSCVQFVESSG | 3.61
CTACGSVLEDNIIVSDVQFVESSG | 3.87
CTACGSVLEDNIIVSFVQFVESSG | 2.08
CTACGSVLEDNIIVSGVQFVESSG | 3.51
CTACGSVLEDNIIVSHVQFVESSG | 3.22

Variant | protein stability index
CTACGSVLEDNIIVSIVQFVESSG | 3.35
CTACGSVLEDNIIVSKVQFVESSG | 3.42
CTACGSVLEDNIIVSLVQFVESSG | 3.15
CTACGSVLEDNIIVSMVQFVESSG | 3.11
CTACGSVLEDNIIVSNVQFVESSG | 2.9
CTACGSVLEDNIIVSPVQFVESSG | 3.33
CTACGSVLEDNIIVSQVQFVESSG | 2.9
CTACGSVLEDNIIVSRVQFVESSG | 3.09
CTACGSVLEDNIIVSSVQFVESSG | 2.38
CTACGSVLEDNIIVSTVQFVESSG | 2.2
CTACGSVLEDNIIVSVVQFVESSG | 2.58
CTACGSVLEDNIIVSWVQFVESSG | 1.9
CTACGSVLEDNIIVSYVQFVESSG | 3.77
CTACGSVLEDNIIVSEAQFVESSG | 4.27
CTACGSVLEDNIIVSECQFVESSG | 3.48
CTACGSVLEDNIIVSEDQFVESSG | 3.87
CTACGSVLEDNIIVSEEQFVESSG | 3.88
CTACGSVLEDNIIVSEFQFVESSG | 2.56
CTACGSVLEDNIIVSEGQFVESSG | 4.45
CTACGSVLEDNIIVSEHQFVESSG | 4.4
CTACGSVLEDNIIVSEIQFVESSG | 1.92
CTACGSVLEDNIIVSEKQFVESSG | 4.41
CTACGSVLEDNIIVSELQFVESSG | 2.29
CTACGSVLEDNIIVSEMQFVESSG | 2.37

Variant | protein stability index
CTACGSVLEDNIIVSENQFVESSG | 3.56
CTACGSVLEDNIIVSEPQFVESSG | 3.71
CTACGSVLEDNIIVSEQQFVESSG | 4.07
CTACGSVLEDNIIVSERQFVESSG | 3.83
CTACGSVLEDNIIVSESQFVESSG | 4.35
CTACGSVLEDNIIVSETQFVESSG | 4.09
CTACGSVLEDNIIVSEWQFVESSG | 2.1
CTACGSVLEDNIIVSEYQFVESSG | 2.87
CTACGSVLEDNIIVSEVAFVESSG | 3.26
CTACGSVLEDNIIVSEVCFVESSG | 2.52
CTACGSVLEDNIIVSEVDFVESSG | 2.89
CTACGSVLEDNIIVSEVEFVESSG | 3.22
CTACGSVLEDNIIVSEVFFVESSG | 1.79
CTACGSVLEDNIIVSEVGFVESSG | 3.47
CTACGSVLEDNIIVSEVHFVESSG | 1.91
CTACGSVLEDNIIVSEVIFVESSG | 1.82
CTACGSVLEDNIIVSEVKFVESSG | 3.27
CTACGSVLEDNIIVSEVLFVESSG | 2.4
CTACGSVLEDNIIVSEVMFVESSG | 2.36
CTACGSVLEDNIIVSEVNFVESSG | 2.77
CTACGSVLEDNIIVSEVPFVESSG | 3.1
CTACGSVLEDNIIVSEVRFVESSG | 2.42
CTACGSVLEDNIIVSEVSFVESSG | 2.44
CTACGSVLEDNIIVSEVTFVESSG | 2.31

Variant | protein stability index
CTACGSVLEDNIIVSEVVFVESSG | 2.01
CTACGSVLEDNIIVSEVWFVESSG | 1.75
CTACGSVLEDNIIVSEVYFVESSG | 1.47
CTACGSVLEDNIIVSEVQAVESSG | 5.26
CTACGSVLEDNIIVSEVQCVESSG | 2.43
CTACGSVLEDNIIVSEVQDVESSG | 4.53
CTACGSVLEDNIIVSEVQEVESSG | 4.27
CTACGSVLEDNIIVSEVQGVESSG | 4.32
CTACGSVLEDNIIVSEVQHVESSG | 4.36
CTACGSVLEDNIIVSEVQIVESSG | 2.87
CTACGSVLEDNIIVSEVQKVESSG | 4.19
CTACGSVLEDNIIVSEVQLVESSG | 3.49
CTACGSVLEDNIIVSEVQMVESSG | 3.63
CTACGSVLEDNIIVSEVQNVESSG | 4.33
CTACGSVLEDNIIVSEVQPVESSG | 4.2
CTACGSVLEDNIIVSEVQQVESSG | 3.76
CTACGSVLEDNIIVSEVQRVESSG | 4.42
CTACGSVLEDNIIVSEVQSVESSG | 4.59
CTACGSVLEDNIIVSEVQTVESSG | 3.98
CTACGSVLEDNIIVSEVQVVESSG | 3.11
CTACGSVLEDNIIVSEVQWVESSG | 2.88
CTACGSVLEDNIIVSEVQYVESSG | 3.49
